Results from patent US20210002376A1 (UNIVERSIT T STUTTGART, published 2021).

T1: TNFR2 (on Kym-1 cells) (UniProt P20333 23-461, limits assumed)
T1 sequence (looked up): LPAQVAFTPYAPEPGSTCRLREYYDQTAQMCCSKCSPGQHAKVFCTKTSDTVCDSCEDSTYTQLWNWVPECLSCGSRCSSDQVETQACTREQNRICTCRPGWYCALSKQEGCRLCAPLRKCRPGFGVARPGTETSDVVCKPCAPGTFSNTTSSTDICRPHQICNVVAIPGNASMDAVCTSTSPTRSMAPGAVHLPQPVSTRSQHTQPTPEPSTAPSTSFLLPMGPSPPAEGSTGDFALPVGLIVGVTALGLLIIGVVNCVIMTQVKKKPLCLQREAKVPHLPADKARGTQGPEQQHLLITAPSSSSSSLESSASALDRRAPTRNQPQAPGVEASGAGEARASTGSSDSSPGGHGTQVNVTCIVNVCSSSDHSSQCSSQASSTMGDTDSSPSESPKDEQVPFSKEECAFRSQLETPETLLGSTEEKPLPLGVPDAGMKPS

T2: TNFR2-Fc (Enbrel) fusion protein (UniProt P20333 23-257)
T2 construct: extracellular domain; Commercial product (Enbrel) used as coated antigen
T2 sequence (looked up): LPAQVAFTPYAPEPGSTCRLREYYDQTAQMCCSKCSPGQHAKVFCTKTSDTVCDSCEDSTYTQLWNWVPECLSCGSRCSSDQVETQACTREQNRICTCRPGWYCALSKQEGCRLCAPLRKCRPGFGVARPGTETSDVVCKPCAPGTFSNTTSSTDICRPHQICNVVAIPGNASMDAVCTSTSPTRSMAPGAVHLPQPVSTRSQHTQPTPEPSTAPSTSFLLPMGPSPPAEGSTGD


Legend:
EGFR-His = target: T3, EGFR-His (UniProt P00533 25-645); experiment: ELISA, coated His-tagged EGFR ECD, anti-human Fc-HRP
T3 construct: range 25-645; also called His-tagged EGFR
Protocol: (§1) The His-tagged EGFR or HER3 proteins were used as antigens and coated onto polystyrene microtiter plates at a concentration of 2 μg/ml diluted in PBS. Remaining binding sites were blocked with PBS, 2% skimmed milk (MPBS). […] After washing, bound antibodies were detected with an HRP-conjugated anti-human Fc antibody and TMB, H₂O₂ as substrate. […] Simultaneous binding to both antigens, EGFR and HER3, was confirmed by a second binding ELISA analysis. As first antigen, EGFR-Fc fusion protein was coated onto polystyrene microtiter plates at 2 μg/ml in PBS. Remaining binding sites were blocked with PBS, 2% skimmed milk (MPBS). […] After washing, the second antigen, HER3-His (300 nM diluted in MPBS), was added to the plates. After washing, bound HER3-His (second antigen) was detected with an HRP-conjugated anti-His antibody and TMB, H₂O₂ as substrate.

HER3-His [1] = target: T4, HER3-His (UniProt P21860 21-643); experiment: ELISA, coated His-tagged HER3 ECD, anti-human Fc-HRP
T4 construct: range 21-643; also called His-tagged HER3; second antigen
Protocol: as §1

HER3-His [2] = target: T4, HER3-His; experiment: simultaneous binding ELISA: coated EGFR-Fc, Db titrated, HER3-His 300 nM added, anti-His-HRP
Protocol: as §1

HER3-His [3] = target: T4, HER3-His; experiment: simultaneous binding, flow cytometry: molecule titrated on CD3-positive Jurkat cells, HER3-His 300 nM added, PE anti-His
Protocol: (§2) Simultaneous binding of both antigens was tested via flow cytometry using CD3-expressing Jurkat cells. A titration of bispecific Db3-43xhuU3-EHD2-Fab3-43-Fcₖᵢₕ was incubated with the cells for one hour at RT. After washing cells twice with PBA, the second antigen, HER3-His, was added to the cells (300 nM) and incubated for one additional hour at RT. Cells were washed twice using PBA. Bound HER3-His was detected using a PE-labeled anti-His antibody. After washing, median fluorescence intensity (MFI) was measured with a Milltenyi MACSQuant® Analyzer 10. Relative MFI (to unstained cells) were calculated by MACSQuant® software and Excel.
(§3) Binding studies of Db3-43xhuU3-EHD2-scFv3-43-Fcₖᵢₕ to HER3-expressing (SKBR3; Table 5) and CD3-expressing cells (Jurkat) were analyzed via flow cytometry. Adherent SKBR3 cells were washed with PBS and shortly trypsinized at 37° C. Trypsin was quenched with FCS containing medium and removed by centrifugation (500×g, 5 minutes). Jurkat cells, which are suspension cells, were directly used without trypsin treatment. […] Bound antibodies were detected using PE-labeled anti-human Fc secondary antibody, which was incubated for another hour at 4° C. After washing, median fluorescence intensity (MFI) was measured with a Milltenyi MACSQuant® Analyzer 10. Relative MFI (to unstained cells) were calculated by MACSQuant® software and Excel. […]

CD3 (on Jurkat cells) = target: T5, CD3 (on Jurkat cells) (UniProt P07766 23-207); experiment: flow cytometry on CD3-expressing Jurkat cells
T5 construct: whole, on cells; CD3 is a complex of several chains; only CD3 is printed; also called CD3-positive Jurkat cells; CD3-expressing cells (Jurkat)
Protocol: as §2, §3

HER3 (on tumor cells) = target: T6, HER3 (on tumor cells) (UniProt P21860 20-1342, limits assumed); experiment: flow cytometry on HER3-expressing SKBR-3 cells
T6 construct: whole, on cells; also called HER3 on MCF-7, SKBR-3 (SKBR3) and FaDu cells

TNFR2 (on Kym-1 cells) = target: T1, TNFR2 (on Kym-1 cells); experiment: cell-based or functional assay
[4] = target: T2, TNFR2-Fc (Enbrel) fusion protein; experiment: ELISA, coated TNFR2-Fc (Enbrel), anti-human Fab-HRP
Protocol: Bound protein was detected with an HRP-conjugated anti-human Fab antibody. […] Optical density was measured at 450 nm.

T5 sequence (P07766 23-207): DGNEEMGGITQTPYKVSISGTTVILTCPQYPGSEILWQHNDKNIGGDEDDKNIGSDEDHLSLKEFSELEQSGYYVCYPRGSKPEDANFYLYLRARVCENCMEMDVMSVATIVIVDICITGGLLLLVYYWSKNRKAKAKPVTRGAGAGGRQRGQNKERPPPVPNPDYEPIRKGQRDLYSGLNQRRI

| Binder | EC50 (EGFR-His) | EC50 (HER3-His [1]) | EC50 (HER3-His [2]) | EC50 (HER3-His [3]) | EC50 (CD3 (on Jurkat cells)) | EC50 (HER3 (on tumor cells)) | also measured |
| --- | --- | --- | --- | --- | --- | --- | --- |
| Db3-43xhu225-EHD2-Fc (bispecific antibody, homodimeric Fc part; also called bispecific, tetravalent diabody fusion protein using EHD2) heavy: EVQLVESGGGLVQPGGSLRLSCAASGFSLTNYGVHWVRQAPGKGLEWLGVIWSGGNTDYNTPFTSRFTISRDNSKNTLYLQMNSLRAEDTAVYYCARALTYYDYEFAYWGQGTTVTVSSGGGGSQAGLTQPPAVSVAPGQTASITCGRDNIGSRSVHWYQQKPGQAPVLVVYDDSDRPAGIPERFSGSNYENTATLTISRVEAGDEADYYCQVWGITSDHVVFGGGTKLTVLASDFTPPTVKILQSSCDGGGHFPPTIQLLCLVSGYTPGTINITWLEDGQVMDVDLSTASTTQEGELASTQSELTLSQKHWLSDRTYTCQVTYQGHTFEDSTKKCADSNDKTHTCPPCPAPPVAGPSVFLFPPKPKDTLMISRTPEVTCVVVDVSHEDPEVKFNWYVDGVEVHNAKTKPREEQYNSTYRVVSVLTVLHQDWLNGKEYKCKVSNKGLPSSIEKTISKAKGQPREPQVYTLPPSRDELTKNQVSLTCLVKGFYPSDIAVEWESNGQPENNYKTTPPVLDSDGSFFLYSKLTVDKSRWQQGNVFSCSVMHEALHNHYTQKSLSLSPGK light: QVQLQQSGPGLVKPSQTLSLTCAISGDSVSSNRAAWNWIRQSPSRGLEWLGRTYYRSKWYNDYAQSLKSRITINPDTPKNQFSLQLNSVTPEDTAVYYCARDGQLGLDALDIWGQGTMVTVSSGGGGSDIQLTQSPSFLSASVGDRVTITCRASQSIGTNIHWYQQKPGKAPKLLIKYASESISGVPSRFSGSGSGTEFTLTISSLQPEDFATYYCQQNNNWPTTFGAGTKLEIKRTDFTPPTVKILQSSCDGGGHFPPTIQLLCLVSGYTPGTINITWLEDGQVMDVDLSTASTTQEGELASTQSELTLSQKHWLSDRTYTCQVTYQGHTFEDSTKKCADSN | 0.28 nM | 0.35 nM | 1.4 nM | – | – | – | – |
| Db3-43xhu225-het1EHD2-Fc (bispecific antibody, also called Db3-43xhu225-hetEHD2-Fc) heavy: EVQLVESGGGLVQPGGSLRLSCAASGFSLTNYGVHWVRQAPGKGLEWLGVIWSGGNTDYNTPFTSRFTISRDNSKNTLYLQMNSLRAEDTAVYYCARALTYYDYEFAYWGQGTTVTVSSGGGGSQAGLTQPPAVSVAPGQTASITCGRDNIGSRSVHWYQQKPGQAPVLVVYDDSDRPAGIPERFSGSNYENTATLTISRVEAGDEADYYCQVWGITSDHVVFGGGTKLTVLASDFTPPTVKILQSSCDGGGHFPPTIQLLCLVSGYTPGTINITWLEDGQVMDVDLSTASTTQEGELASTQSELTLSQKHWLSDRTYTCQVTYQGHTFEDSTKKSADSNDKTHTCPPCPAPPVAGPSVFLFPPKPKDTLMISRTPEVTCVVVDVSHEDPEVKFNWYVDGVEVHNAKTKPREEQYNSTYRVVSVLTVLHQDWLNGKEYKCKVSNKGLPSSIEKTISKAKGQPREPQVYTLPPSRDELTKNQVSLTCLVKGFYPSDIAVEWESNGQPENNYKTTPPVLDSDGSFFLYSKLTVDKSRWQQGNVFSCSVMHEALHNHYTQKSLSLSPGK light: QVQLQQSGPGLVKPSQTLSLTCAISGDSVSSNRAAWNWIRQSPSRGLEWLGRTYYRSKWYNDYAQSLKSRITINPDTPKNQFSLQLNSVTPEDTAVYYCARDGQLGLDALDIWGQGTMVTVSSGGGGSDIQLTQSPSFLSASVGDRVTITCRASQSIGTNIHWYQQKPGKAPKLLIKYASESISGVPSRFSGSGSGTEFTLTISSLQPEDFATYYCQQNNNWPTTFGAGTKLEIKRTDFTPPTVKILQSSSDGGGHFPPTIQLLCLVSGYTPGTIQITWLEDGQVMDVDLSTASTTQEGELASTQSELTLSQKHWLSDRTYTCQVTYQGHTFEDSTKKCADSN | 0.24 nM | 0.34 nM | 0.56 nM | – | – | – | – |
| hu225-IgG (antibody, V domains shown) VH: EVQLVESGGGLVQPGGSLRLSCAASGFSLTNYGVHWVRQAPGKGLEWLGVIWSGGNTDYNTPFTSRFTISRDNSKNTLYLQMNSLRAEDTAVYYCARALTYYDYEFAYWGQGTTVTVSS VL: DIQLTQSPSFLSASVGDRVTITCRASQSIGTNIHWYQQKPGKAPKLLIKYASESISGVPSRFSGSGSGTEFTLTISSLQPEDFATYYCQQNNNWPTTFGAGTKLEIK | 0.23 nM | – | – | – | – | – | – |
| Db3-43xhuU3-EHD2-Fab3-43-Fckih (bispecific antibody, Four different polypeptides; also called bispecific, trivalent Diabody-Fab fusion protein targeting HER3 (3-43) and CD3 (huU3)) light 1: not shown heavy 1: QVQLVQSGAEVKKPGSSVKVSCKASGGTFSGYTMNWVRQAPGQGLEWMGLINPYKGVSTYNGKFKDRVTITADKSTSTAYMELSSLRSEDTAVYYCARSGYYGDSDWYFDVWGQGTLVTVSSGGGGSQAGLTQPPAVSVAPGQTASITCGRDNIGSRSVHWYQQKPGQAPVLVVYDDSDRPAGIPERFSGSNYENTATLTISRVEAGDEADYYCQVWGITSDHVVFGGGTKLTVLASDFTPPTVKILQSSCDGGGHFPPTIQLLCLVSGYTPGTINITWLEDGQVMDVDLSTASTTQEGELASTQSELTLSQKHWLSDRTYTCQVTYQGHTFEDSTKKCADSNDKTHTCPPCPAPPVAGPSVFLFPPKPKDTLMISRTPEVTCVVVDVSHEDPEVKFNWYVDGVEVHNAKTKPREEQYNSTYRVVSVLTVLHQDWLNGKEYKCKVSNKGLPSSIEKTISKAKGQPREPQVCTLPPSRDELTKNQVSLSCAVKGFYPSDIAVEWESNGQPENNYKTTPPVLDSDGSFFLVSKLTVDKSRWQQGNVFSCSVMHEALHNHYTQKSLSLSPGK heavy 2: QVQLQQSGPGLVKPSQTLSLTCAISGDSVSSNRAAWNWIRQSPSRGLEWLGRTYYRSKWYNDYAQSLKSRITINPDTPKNQFSLQLNSVTPEDTAVYYCARDGQLGLDALDIWGQGTMVTVSSASTKGPSVFPLAPSSKSTSGGTAALGCLVKDYFPEPVTVSWNSGALTSGVHTFPAVLQSSGLYSLSSVVTVPSSSLGTQTYICNVNHKPSNTKVDKKVEPKSCGTDKTHTCPPCPAPPVAGPSVFLFPPKPKDTLMISRTPEVTCVVVDVSHEDPEVKFNWYVDGVEVHNAKTKPREEQYNSTYRVVSVLTVLHQDWLNGKEYKCKVSNKGLPSSIEKTISKAKGQPREPQVYTLPPCRDELTKNQVSLWCLVKGFYPSDIAVEWESNGQPENNYKTTPPVLDSDGSFFLYSKLTVDKSRWQQGNVFSCSVMHEALHNHYTQKSLSLSPGK light 2: QAGLTQPPAVSVAPGQTASITCGRDNIGSRSVHWYQQKPGQAPVLVVYDDSDRPAGIPERFSGSNYENTATLTISRVEAGDEADYYCQVWGITSDHVVFGGGTKLTVLGQPKAAPSVTLFPPSSEELQANKATLVCLISDFYPGAVTVAWKADSSPVKAGVETTTPSKQSNNKYAASSYLSLTPEQWKSHRSYSCQVTHEGSTVEKTVAPTECS | – | – | – | 13.8 nM | 9.5 nM | 0.03 nM | – |
| Db3-43xhuU3-EHD2-scFv3-43-Fckih (bispecific antibody, Three different polypeptides; also called bispecific, trivalent Diabody-scFv fusion protein targeting HER3 (3-43) and CD3 (huU3)) light: not shown heavy: QVQLVQSGAEVKKPGSSVKVSCKASGGTFSGYTMNWVRQAPGQGLEWMGLINPYKGVSTYNGKFKDRVTITADKSTSTAYMELSSLRSEDTAVYYCARSGYYGDSDWYFDVWGQGTLVTVSSGGGGSQAGLTQPPAVSVAPGQTASITCGRDNIGSRSVHWYQQKPGQAPVLVVYDDSDRPAGIPERFSGSNYENTATLTISRVEAGDEADYYCQVWGITSDHVVFGGGTKLTVLASDFTPPTVKILQSSCDGGGHFPPTIQLLCLVSGYTPGTINITWLEDGQVMDVDLSTASTTQEGELASTQSELTLSQKHWLSDRTYTCQVTYQGHTFEDSTKKCADSNDKTHTCPPCPAPPVAGPSVFLFPPKPKDTLMISRTPEVTCVVVDVSHEDPEVKFNWYVDGVEVHNAKTKPREEQYNSTYRVVSVLTVLHQDWLNGKEYKCKVSNKGLPSSIEKTISKAKGQPREPQVCTLPPSRDELTKNQVSLSCAVKGFYPSDIAVEWESNGQPENNYKTTPPVLDSDGSFFLVSKLTVDKSRWQQGNVFSCSVMHEALHNHYTQKSLSLSPGK QVQLQQSGPGLVKPSQTLSLTCAISGDSVSSNRAAWNWIRQSPSRGLEWLGRTYYRSKWYNDYAQSLKSRITINPDTPKNQFSLQLNSVTPEDTAVYYCARDGQLGLDALDIWGQGTMVTVSSGGGGSGGGGSGGGGSQAGLTQPPAVSVAPGQTASITCGRDNIGSRSVHWYQQKPGQAPVLVVYDDSDRPAGIPERFSGSNYENTATLTISRVEAGDEADYYCQVWGITSDHVVFGGGTKLTVLAAADKTHTCPPCPAPPVAGPSVFLFPPKPKDTLMISRTPEVTCVVVDVSHEDPEVKFNWYVDGVEVHNAKTKPREEQYNSTYRVVSVLTVLHQDWLNGKEYKCKVSNKGLPSSIEKTISKAKGQPREPQVYTLPPCRDELTKNQVSLWCLVKGFYPSDIAVEWESNGQPENNYKTTPPVLDSDGSFFLYSKLTVDKSRWQQGNVFSCSVMHEALHNHYTQKSLSLSPGK | – | – | – | 9 nM | 8.1 nM | 0.037 nM | – |
| anti-TNFR2 IgG (antibody, V domains shown) VH: QVQLQQSGAEVKKPGSAVKVSCKASGGTFSSYAISWVRQAPGQGLEWMGRIIPILGIANYAQKFQGRVTITADKSTSTAYMELSSLRSEDTAVYYCARDGLGDAFDIWGQGTMVTVSS VL: QSALTQPRSVSGSPGQSITISCTGTSSDVGGYNYVSWYQQHPGKAPKLMIYDVSNRPSGVSNRFSGSKSGNTASLTISGLQAEDEADYYCSSYTSSSTLVVFGGGTKLTVL | – | – | – | – | – | – | EC50 of cell death induction, Kym-1 cells, MTT assay after 24 hours (TNFR2 (on Kym-1 cells)): ~30 nM; EC50 [4]: 0.7 nM |
